According to patent US12637662B2, “Cells, islets, and organoids that evade immune detection and autoimmunity, methods of production and use thereof” (SALK INSTITUTE FOR BIOLOGICAL STUDIES, priority 2018, dated 2026):

Key:
[1] = test system: human iPSC derived cells (islet-like organoids, MCS, HILOs); assay: Glucose-stimulated insulin/c-peptide secretion assay (GSIS, ELISA); type: cell-based
Procedure: Insulin release from intact islets was monitored using batch incubation methods as reported by E. Yoshihara et al., 2016, Cell metabolism, 23:622-634. Briefly, overnight-cultured, isolated pancreatic islets (RPMI-1640 medium supplemented with 10% (v/v) fetal bovine serum and 1% (v/v) Antibiotic-Antimycotic (Gibco)) were pre-cultured at 37° C. for 30 minutes in Krebs-Ringer bicarbonate buffer (KRBB) containing 129.4 mM NaCl, 3.7 mM KCl, 2.7 mM CaCl2), 1.3 mM KH2PO4, 1.3 mM MgSO4, 24.8 mM NaHCO3 (equilibrated with 5% CO2, 95% O2, pH 7.4), 10 mM HEPES and 0.2% (v/v) BSA (fraction V, Sigma) (KRBH) with 3 mM glucose). […] After 30 minutes, the islets were pelleted by centrifugation and secreted insulin levels were determined in the medium by Enzyme Linked Immunosorbent Assay (ELISA), (Rat/mouse Insulin ELISA KIT (Millipore) and Human Insulin ELISA KIT or ultrasensitive human c-peptide ELISA Kit (Millipore) for mouse and human islets, respectively). […] After 30 minutes, the cells were pelleted by centrifugation and c-peptide levels were determined in the supernatant medium using the human c-peptide ELISA KIT (Millipore). […]
Insulin release from intact islets was monitored using batch incubation methods (Yoshihara et al., 2010, Nat. Commun. 1:127). […] After 30 min, the cells were pelleted by centrifugation and c-peptide levels were determined by human c-peptide ELISA KIT (Millipore).

[2] = test system: ERRγ (ESRRG), mitochondrial and insulin gene expression; assay: Quantitative RT-PCR gene expression in hiPSC-derived islet organoids/HILOs; type: cell-based, human; conditions: hiPSC-derived islet organoids, MCS or HILOs
Procedure: hiPSCs were cultured in matrigel-coated plates. Single cell suspensions were prepared using Accutase, washed in PBS, and collected by centrifugation (1000-1300 rpm for 5 min). Cells were re-suspended with 3D Kelco Gel Stem TeSR™ Base Medium in the presence of the ROCK inhibitor (10 μM Y-27632, StemCell) for 5 to 7 days until spheroids reached 50-100 μm diameter. The medium was then replaced with 0.015% Kelco gel containing 0.3% methylcellulose and supplemented with 100 ng/ml human Activin A (R&D Systems), 3 μM CHIR99021 (Axon or Selleckchem) in differentiation medium (S1) for 1 day, and then 100 ng/ml human Activin in differentiation medium (S1) for another 2 days (Stage 1, Definitive Endoderm). Subsequently, the medium was replaced with differentiation medium (S2) with 50 ng/ml FGF7 (R&D Systems) for 2 days, differentiation medium (S3) with 50 ng/ml FGF7, 0.25 μM SANT-1 (Sigma), 1 μM Retinoic Acid (Sigma), 100 nM LDN193189, 10 μM Alk5 inhibitor II and 200 nM of the ß-Amyloid Precursor Protein modulator TPB for 3 days, then 50 ng/ml FGF7, 0.25 μM SANT-1 (Sigma), 1 μM Retinoic Acid (Sigma), 100 nM LDN193189, 10 μM Alk5 inhibitor II and 100 nM of the ß-Amyloid Precursor Protein modulator TPB for 2 days. Subsequently the medium was replaced with differentiation medium (S4) with 0.25 μM SANT-1, 50 nM retinoic acid, 100 nM LDN193189, 10 μM Alk5 inhibitor II, 1 μM T3 for 3 days. Subsequently, the medium was replaced with differentiation medium (S5) with 100 nM LDN193189, 100 nM […] inhibitor XX (GSiXX, Millipore), 10 μM Alk5 inhibitor IL, 1 μM T3 for 7 days. Subsequently, the medium was replaced with differentiation media (S5) with 10 μM Trolox (Calbiochem), 2 μM R428 (Selleckchem), 1 mM N-acetyl cysteine, 10 μM Alk5 inhibitor II, 1 μM T3 for an additional 7 to 20 days. […]
Total RNA was extracted using TRIzol reagent (Invitrogen) and RNeasy KIT (Qiagen). […] Real time quantitative RT-PCR (qPCR) was performed using SYBR Green (Bio-Rad).

B1: WNT4: recombinant human Wnt4 protein (R&D Systems), non-canonical WNT maturation factor (protein, UniProt P56705 23-351, looked up)
Protein Wnt-4: SNWLYLAKLSSVGSISEEETCEKLKGLIQRQVQMCKRNLEVMDSVRRGAQLAIEECQYQFRNRRWNCSTLDSLPVFGKVVTQGTREAAFVYAISSAGVAFAVTRACSSGELEKCGCDRTVHGVSPQGFQWSGCSDNIAYGVAFSQSFVDVRERSKGASSSRALMNLHNNEAGRKAILTHMRVECKCHGVSGSCEVKTCWRAVPPFRQVGHALKEKFDGATEVEPRRVGSSRALVPRNAQFKPHTDEDLVYLEPSPDFCEQDMRSGVLGTRGRTCNKTSKAIDGCELLCCGRGFHTAQVELAERCSCKFHWCCFVKCRQCQRLVELHTCR
In the case of B1, the “glucose-stimulated insulin (c-peptide) secretion in vitro” value ([1]; 3 mM vs 20 mM glucose) is reported as “showed functional maturation”, the “pseudo-islet formation and GSIS of commercially-available hiPSC-derived β like cells” value ([1]; 3D differentiation medium containing WNT4) is reported as “promoted pseudo-islet formation and GSIS functionality” and the “expression of ERRγ (ESRRG) and mitochondrial genes” value [2] is reported as “dose-dependently increased”. For the same molecule, the “expression of ERRγ (ESRRG) and mitochondrial genes” value ([2]; listed as rhWNT4) was “induced”.
